Data as given in patent US20170355765A1 (published 2017).

Target: T1, human TEM8 expressed on CHO or HEK 293 cells (human, UniProt Q9H6X2 33-564)
T1 construct: also called hTEM8; CHO TEM8
Assay: binding to CHO cells expressing human TEM8

T1 sequence (Q9H6X2 33-564 limits assumed): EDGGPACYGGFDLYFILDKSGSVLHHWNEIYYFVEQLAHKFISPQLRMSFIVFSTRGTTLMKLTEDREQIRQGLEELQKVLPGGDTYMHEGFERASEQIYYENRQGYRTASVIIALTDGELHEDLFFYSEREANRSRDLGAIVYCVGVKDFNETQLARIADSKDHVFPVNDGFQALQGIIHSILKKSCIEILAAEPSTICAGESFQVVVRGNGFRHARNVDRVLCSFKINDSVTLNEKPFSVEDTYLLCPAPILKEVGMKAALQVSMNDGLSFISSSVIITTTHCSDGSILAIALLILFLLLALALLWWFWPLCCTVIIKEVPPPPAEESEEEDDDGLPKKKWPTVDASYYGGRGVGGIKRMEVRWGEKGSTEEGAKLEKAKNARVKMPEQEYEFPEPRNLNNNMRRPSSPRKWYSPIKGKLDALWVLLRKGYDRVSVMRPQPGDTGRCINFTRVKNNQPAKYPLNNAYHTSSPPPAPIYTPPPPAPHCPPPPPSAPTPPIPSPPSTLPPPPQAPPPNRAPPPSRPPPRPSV

B1: antibody drug conjugate including the m825 antibody (in human IgG1 format) conjugated to MMAE (other)
VH: QVQLVQSGAEVKKPGTSVKVSCKVPGYTFSSYAISWVRQAPGQGLEWMGGIIPIFGTTNYAQKFQGRVTITGEESTSTVYMELSSLRSEDTAVYYCARDTDYMFDYWGQGTLVTVSS
VL: SSELTQDPVVSVALGETVSITCQGDNLRDFYASWYQQKPGQAPLLVMYGKNRRPSGIPDRFSGSTSGNTLSLTITGAQAEDEADYYCSSRDNSKHVVFGGGTKVTVL
modifications: MMAE toxin with stretcher unit, Val-Cit peptide cleavage site and spacer, linked to thiol groups formed by partial reduction of inter-chain disulfide bonds (positions not stated)
notes: also called m825-MMAE; m825-MMAE conjugate
binding result: binds
